B1: GST-tagged human GABARAP (natural protein)
chain: MKFVYKEEHPFEKRRSEGEKIRKKYPDRVPVIVEKAPKARIGDLDKKKYLVPSDLTVGQFYFLIRKRIHLRAEDALFFFVNNVIPPTSATMGQLYQEHHEEDFFLYIAYSDESVYGL

Legend:
[1] = target: Recombinant WT XIAP protein (human, UniProt P98170 1-497); test: pull-down
GST-tagged human GABARAP = target: B1; test: pull-down

Chain of Recombinant WT XIAP protein (P98170 whole entry): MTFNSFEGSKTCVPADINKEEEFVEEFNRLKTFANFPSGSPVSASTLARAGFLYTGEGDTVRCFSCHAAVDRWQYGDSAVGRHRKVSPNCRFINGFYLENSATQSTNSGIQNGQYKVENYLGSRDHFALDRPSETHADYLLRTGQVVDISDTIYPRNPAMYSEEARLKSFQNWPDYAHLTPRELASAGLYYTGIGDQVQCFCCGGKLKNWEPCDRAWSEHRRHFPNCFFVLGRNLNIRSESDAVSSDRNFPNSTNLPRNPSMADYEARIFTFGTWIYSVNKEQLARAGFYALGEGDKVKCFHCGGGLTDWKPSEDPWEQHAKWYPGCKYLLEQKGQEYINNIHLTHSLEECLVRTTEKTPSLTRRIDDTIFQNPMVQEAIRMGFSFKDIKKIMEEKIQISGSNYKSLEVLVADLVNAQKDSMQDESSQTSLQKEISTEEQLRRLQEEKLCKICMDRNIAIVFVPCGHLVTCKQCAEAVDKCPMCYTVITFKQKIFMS

Binder | binding result [1] | binding result (GST-tagged human GABARAP)
B1 | binds | –
EDEWVNVQY [GIM-containing peptide EDEWVNVQY] | – | binds
